Experimental data taken from patent US20230280343A1 (NEW YORK UNIVERSITY, published 2023).

Biological target: T1, SARS-CoV-2 spike receptor binding domain (RBD) (SARS-CoV-2, UniProt P0DTC2 319-541)
T1 construct: domain: RBD

B1: coiled-coil domain of the cartilage oligomeric matrix protein (C) (other)
chain: GDLAPQMLRELQETNAALQDVRELLRQQVKEITFLKNTVMECDACGKLN
notes: also called parent protein C; ccCOMP
- binding result: no binding
